Our source for the binding result and EC50 values is paper PMC9477280 (PLoS Pathogens, 2022).

For one assay, the target named is T1, EPEC intimin (Escherichia coli O127:H6 E2348/69 (EPEC), UniProt P19809).
T1 construct: also called recombinant intimin (EPEC)
The assay is described as follows: ELISA; dilution ELISA; purified antigen coated directly on Nunc Maxisorp wells, typically 1 μg/mL in PBS overnight at 4°C, blocked with 4% milk in PBS 0.1% Tween; thioredoxin/VHH/E-tag from 125 nM in 1:5 serial dilutions, 1 h 37°C; detected with HRP anti-E-tag; EC50 estimates (apparent affinity); Trace = EC50 >125 nM, poor but detectable. Conditions: both partners purified.

In another assay the target is T2, EHEC intimin (Escherichia coli O157:H7 EDL933 (EHEC), UniProt P43261).
T2 construct: also called recombinant intimin (EHEC)
T2 sequence (P43261 40-934): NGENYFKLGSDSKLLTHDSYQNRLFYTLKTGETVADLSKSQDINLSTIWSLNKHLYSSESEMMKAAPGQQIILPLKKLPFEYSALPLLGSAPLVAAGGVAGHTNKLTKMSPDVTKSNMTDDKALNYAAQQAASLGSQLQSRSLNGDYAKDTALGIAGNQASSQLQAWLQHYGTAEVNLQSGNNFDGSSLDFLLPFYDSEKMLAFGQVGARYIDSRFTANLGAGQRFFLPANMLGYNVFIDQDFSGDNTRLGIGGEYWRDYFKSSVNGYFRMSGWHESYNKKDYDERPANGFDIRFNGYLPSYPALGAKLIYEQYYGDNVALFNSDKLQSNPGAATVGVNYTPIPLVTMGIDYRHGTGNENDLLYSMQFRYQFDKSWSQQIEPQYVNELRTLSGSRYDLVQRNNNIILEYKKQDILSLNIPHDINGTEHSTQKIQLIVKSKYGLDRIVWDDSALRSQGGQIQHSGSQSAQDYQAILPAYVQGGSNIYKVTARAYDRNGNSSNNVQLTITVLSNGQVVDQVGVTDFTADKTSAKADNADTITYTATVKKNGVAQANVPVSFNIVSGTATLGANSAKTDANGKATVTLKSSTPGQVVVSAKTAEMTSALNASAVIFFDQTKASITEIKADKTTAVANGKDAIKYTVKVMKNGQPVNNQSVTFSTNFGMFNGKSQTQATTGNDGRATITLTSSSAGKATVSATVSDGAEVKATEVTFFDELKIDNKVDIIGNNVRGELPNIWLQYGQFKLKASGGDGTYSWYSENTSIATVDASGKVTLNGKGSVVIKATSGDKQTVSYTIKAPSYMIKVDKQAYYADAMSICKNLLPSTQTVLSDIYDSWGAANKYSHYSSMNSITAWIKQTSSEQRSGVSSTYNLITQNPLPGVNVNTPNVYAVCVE
Described as above. Conditions: both partners purified.

The target of another assay is T3, MC1061 /EPEC intimin (Escherichia coli O127:H6, JPN15 …, UniProt P19809).
T3 construct: also called E. coli 1061/pInt (EPEC); EPEC intimin expressed on the surface of strain MC1061
T3 sequence (P19809 42-939): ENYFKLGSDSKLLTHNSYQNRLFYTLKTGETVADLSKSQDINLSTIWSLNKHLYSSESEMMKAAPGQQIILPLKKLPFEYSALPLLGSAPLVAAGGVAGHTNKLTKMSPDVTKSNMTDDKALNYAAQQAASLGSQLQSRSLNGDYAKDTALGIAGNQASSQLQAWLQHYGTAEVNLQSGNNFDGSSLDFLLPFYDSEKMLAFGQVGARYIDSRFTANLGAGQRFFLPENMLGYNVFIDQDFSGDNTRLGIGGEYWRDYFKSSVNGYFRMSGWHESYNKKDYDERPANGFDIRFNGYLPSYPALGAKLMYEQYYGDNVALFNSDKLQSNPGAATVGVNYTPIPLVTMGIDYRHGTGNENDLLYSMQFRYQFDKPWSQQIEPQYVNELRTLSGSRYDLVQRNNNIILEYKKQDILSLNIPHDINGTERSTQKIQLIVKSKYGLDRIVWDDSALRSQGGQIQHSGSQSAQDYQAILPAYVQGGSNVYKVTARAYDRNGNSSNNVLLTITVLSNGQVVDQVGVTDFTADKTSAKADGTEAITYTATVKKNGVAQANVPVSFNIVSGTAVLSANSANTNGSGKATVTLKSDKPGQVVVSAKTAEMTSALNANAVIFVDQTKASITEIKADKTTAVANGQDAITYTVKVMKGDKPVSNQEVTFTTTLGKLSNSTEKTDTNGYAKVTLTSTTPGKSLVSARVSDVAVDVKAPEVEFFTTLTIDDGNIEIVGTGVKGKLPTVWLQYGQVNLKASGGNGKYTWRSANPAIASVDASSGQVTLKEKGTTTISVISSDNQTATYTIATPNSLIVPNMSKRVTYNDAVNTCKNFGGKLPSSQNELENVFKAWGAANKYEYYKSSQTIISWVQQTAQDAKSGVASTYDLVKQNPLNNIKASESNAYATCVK
The assay is described as follows: ELISA; dilution ELISA with intimin displayed on the surface of E. coli MC1061 as antigen; soluble thioredoxin/VHH/E-tag; EC50 estimates (apparent affinity). Conditions: one partner purified.

The target of another assay is C. rodentium intimin (Citrobacter rodentium DBS100, UniProt Q07591). The experiment in a line: ELISA; EC50 told in footnote g of Table 1; form of the C. rodentium intimin antigen not stated. (In general: In an ELISA, binding on a coated surface is turned into a signal by an enzyme label.)
The target in the next assay is EPEC flagella (Escherichia coli O127:H6 E2348/69 (EPEC), UniProt B7USU2). The assay is described as follows: ELISA; dilution ELISA; purified antigen coated directly on Nunc Maxisorp wells, typically 1 μg/mL in PBS overnight at 4°C, blocked with 4% milk in PBS 0.1% Tween; thioredoxin/VHH/E-tag from 125 nM in 1:5 serial dilutions, 1 h 37°C; detected with HRP anti-E-tag; EC50 estimates (apparent affinity); Trace = EC50 >125 nM, poor but detectable. Conditions: both partners purified.
Sequence of EPEC flagella (B7USU2 2-548): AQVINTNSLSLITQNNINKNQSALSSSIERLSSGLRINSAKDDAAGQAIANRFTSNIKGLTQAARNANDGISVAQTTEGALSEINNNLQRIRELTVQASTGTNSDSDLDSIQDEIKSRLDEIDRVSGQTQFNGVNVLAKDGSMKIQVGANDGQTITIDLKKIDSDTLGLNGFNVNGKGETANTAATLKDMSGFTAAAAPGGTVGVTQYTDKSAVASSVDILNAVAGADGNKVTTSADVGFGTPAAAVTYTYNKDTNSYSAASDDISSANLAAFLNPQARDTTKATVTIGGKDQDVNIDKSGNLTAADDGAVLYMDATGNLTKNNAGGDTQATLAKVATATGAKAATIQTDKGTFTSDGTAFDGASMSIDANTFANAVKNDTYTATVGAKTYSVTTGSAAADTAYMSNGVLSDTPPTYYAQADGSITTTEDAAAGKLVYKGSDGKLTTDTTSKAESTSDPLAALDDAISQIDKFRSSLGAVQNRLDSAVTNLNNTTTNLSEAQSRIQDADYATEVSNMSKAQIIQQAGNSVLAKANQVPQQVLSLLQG

The target of another assay is T4, EPEC FliC (Escherichia coli EPEC, likely O127:H6 …, UniProt B7USU2).
T4 construct: also called EPEC rFliC; recombinant FliC
T4 sequence (B7USU2 2-548): as above
The description is as above. Conditions: both partners purified.

The target of assay [1] is T5, MC1061 expressing EHEC intimin (Escherichia coli O157:H7 EDL933 (EHEC), UniProt P43261).
T5 construct: also called E. coli 1061/pInt (EHEC); EHEC intimin expressed on the surface of strain MC1061
T5 sequence (P43261 40-934): as the sequence (P43261 40-934) above
The assay is described as follows: ELISA; dilution ELISA with intimin displayed on the surface of E. coli MC1061 as antigen; soluble thioredoxin/VHH/E-tag; EC50 estimates (apparent affinity). Conditions: one partner purified.

T1 sequence (P19809 42-939): as the sequence (P19809 42-939) above

B1: JXN-E2 (VHH)
VHH: TGGLVPPGGSLQLSCTSSGFFLDYLGVAWFRQAPGNEREGVSCIDYTGDNIAYASSMKGRATISRDKDANTVTLEMNGLKPEDTAVYYCAAHRSATTYADGKYRCPLENEYDYWGQGIQVTVSS
notes: also called JXS-2 (vector name); not shown: thioredoxin, N-terminal, kept; E-tag, C-terminal, kept
On to B1, for which the binding result in the assay with EPEC intimin, with EHEC intimin and with MC1061 /EPEC intimin was “no binding (tested: 125 nM (highest VHH concentration))” in each case. The EC50 (usually the midpoint of the concentration-response curve) with C. rodentium intimin is roughly 0.5 nM.

B2: JUV-C4 (VHH)
VHH: TGGGLVQAGGSLTLSCVASGRAVSSFAMGWFRQIPGREQRDFVAFIGDYGLTTYYANSVKGRFTISRSNAENTLYLQMNSLEFEDAAVYFCAARDAYRSGTTNPSAYDYWGQGTQVTVSS
notes: also called αFla-2; JVE-4 (vector name); not shown: thioredoxin, N-terminal, kept; E-tag, C-terminal, kept
In the case of B2, the results for the EC50 with EPEC flagella and with EPEC FliC were 1 nM and 0.3 nM, respectively.

B3: JWU-G8 (VHH)
VHH: SGGGLVQPGGSLRLSCATSGFYFAGYWMHWVRQVPGQGLEWVSGIDLGSTMLNYRDSVKGRFSISRDNAKNTVYLQMHSLKPEDTALYFCARDRRAGATSGGYDPDVRGQGTQVTVSS
notes: also called αInt-17; JWZ-15 (vector name)
As for B3, the binding result is given as “binds” in assay [1] and “no binding (tested: 125 nM (highest VHH concentration))” with EHEC intimin. Moreover, the EC50 in the assay with MC1061 /EPEC intimin is 0.5 nM.

B4: JWU-D8 (VHH)
VHH: TGGGLVQPGGSLRLSCAASGFYFSGYWMHWVRQVQGQGLKWVSGINIDDTKSSYTDSVKGRFTISRDNTKNTLYLQMDSLQPEDTGVYYCARDRRAGQISGGYDPDYRGQGTQVTVSS
notes: also called αInt-14; JWZ-9 (vector name)
With B4, the binding result in assay [1] was “binds”. Further, in the assay with MC1061 /EPEC intimin, the EC50 was 0.5 nM.

B5: JWS-H4 (VHH)
VHH: SGGGLVQAGGSLRLSCTTSASIFSGYRMGWFRQAPGKQREFVASIADGQNTPYADSVMGRFTISRDNAKNTVYLQMSNLKPEDTAIYYCKSWGYTDWGQGTQVTVSS
notes: also called αInt-12; JWZ-5 (vector name)
On to B5, for which the binding result in assay [1] is “binds”. Moreover, the EC50 in the assay with MC1061 /EPEC intimin is 10 nM.
